The values below are quoted from earlier work in paper PMC3218206 (Chemical biology & drug design, 2011).

As usually defined, the Kd is the constant that tells how readily two partners part at equilibrium.

Data set [1] deals with Nrf2 14mer peptide (Homo sapiens). In words: ITC.

In the case of Keap1 (from UniProt Q14145), the Kd in data set [1] is 20 nM.

As to LQLDEETGEFLPIQ, the “displacement of Nrf2 from Keap1-Nrf2 complex” value with Keap1-Nrf2 complex is given as “effectively”.
